Results as given in IntAct's records for PubMed 36096339.

How the values were obtained:
[1] = molecular target: 1433g_human YWHAG (UniProt P61981)
[2] = molecular target: 1433f_human YWHAH (UniProt Q04917)
[3] = molecular target: 1433b_human YWHAB (UniProt P31946)
[4] = molecular target: 1433e_human YWHAE (UniProt P62258)
[5] = molecular target: 1433z_human YWHAZ (UniProt P63104)
[6] = molecular target: 1433t_human YWHAQ (UniProt P27348)
Sequence of UniProt P27348 (P27348 whole entry): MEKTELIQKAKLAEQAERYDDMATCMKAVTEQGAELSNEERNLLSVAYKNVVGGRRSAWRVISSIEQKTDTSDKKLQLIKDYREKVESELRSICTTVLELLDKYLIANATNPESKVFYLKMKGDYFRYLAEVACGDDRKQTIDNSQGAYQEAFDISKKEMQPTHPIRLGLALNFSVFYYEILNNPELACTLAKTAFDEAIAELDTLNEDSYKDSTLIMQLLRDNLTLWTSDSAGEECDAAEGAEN

Sequence of UniProt P62258 (P62258 whole entry): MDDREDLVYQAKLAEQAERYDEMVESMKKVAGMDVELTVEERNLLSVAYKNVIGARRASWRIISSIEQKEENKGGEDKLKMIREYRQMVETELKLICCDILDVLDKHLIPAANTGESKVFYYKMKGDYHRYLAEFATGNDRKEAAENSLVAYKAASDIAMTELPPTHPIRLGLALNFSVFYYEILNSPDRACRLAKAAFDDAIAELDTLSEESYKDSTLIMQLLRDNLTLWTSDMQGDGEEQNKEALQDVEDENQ
Sequence of UniProt P61981 (P61981 whole entry): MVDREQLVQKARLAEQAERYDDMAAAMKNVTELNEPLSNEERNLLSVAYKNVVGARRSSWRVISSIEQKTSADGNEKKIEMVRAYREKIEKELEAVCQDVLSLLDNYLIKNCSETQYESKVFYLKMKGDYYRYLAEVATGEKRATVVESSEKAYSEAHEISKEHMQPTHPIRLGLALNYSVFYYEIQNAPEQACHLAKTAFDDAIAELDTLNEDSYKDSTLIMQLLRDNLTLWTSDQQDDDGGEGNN
Sequence of UniProt P63104 (P63104 whole entry): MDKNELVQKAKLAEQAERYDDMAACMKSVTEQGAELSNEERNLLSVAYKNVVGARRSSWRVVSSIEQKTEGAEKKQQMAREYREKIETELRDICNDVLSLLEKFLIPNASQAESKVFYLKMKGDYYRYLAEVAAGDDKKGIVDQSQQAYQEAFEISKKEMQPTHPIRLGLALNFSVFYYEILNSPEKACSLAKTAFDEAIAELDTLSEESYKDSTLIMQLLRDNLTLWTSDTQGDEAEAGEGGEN
Sequence of UniProt P31946 (P31946 whole entry): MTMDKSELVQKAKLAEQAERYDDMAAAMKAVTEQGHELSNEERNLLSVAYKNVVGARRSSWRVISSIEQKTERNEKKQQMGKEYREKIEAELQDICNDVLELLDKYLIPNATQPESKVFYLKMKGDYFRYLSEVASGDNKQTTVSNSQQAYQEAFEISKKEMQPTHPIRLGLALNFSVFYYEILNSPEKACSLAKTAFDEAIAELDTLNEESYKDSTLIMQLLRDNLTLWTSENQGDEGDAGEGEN
Sequence of UniProt Q04917 (Q04917 whole entry): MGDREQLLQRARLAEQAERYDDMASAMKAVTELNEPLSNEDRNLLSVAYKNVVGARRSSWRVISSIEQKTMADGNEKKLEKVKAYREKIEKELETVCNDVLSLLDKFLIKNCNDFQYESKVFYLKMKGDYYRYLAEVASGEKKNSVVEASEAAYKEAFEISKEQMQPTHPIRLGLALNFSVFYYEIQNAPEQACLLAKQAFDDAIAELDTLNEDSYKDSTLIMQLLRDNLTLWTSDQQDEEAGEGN

effect of a mutation on the interaction [1]: decreasing interaction strength
effect of a mutation on the interaction [2]: decreasing interaction strength
effect of a mutation on the interaction [3]: decreasing interaction strength
effect of a mutation on the interaction [4]: with no effect
effect of a mutation on the interaction [5]: decreasing interaction strength
effect of a mutation on the interaction [6]: decreasing interaction strength
Substance: Spatacsin (Homo sapiens), Q96JI7 S1955A
